Patent publication US20130115279A1 (IMMUNOCELLULAR THERAPEUTICS, published 2013)

Assays:
HLA-A*0201 [1] = target: T1, HLA-A*0201 (human); assay: REVEAL off rate analysis of peptide-MHC pentamers, 37 C, 0, 2 and 24 h
T1 construct: Class I MHC molecule of the ProImmune REVEAL assay; also called HLA-A2
Method: (§1) The pentamers were subjected to incubation and analysis at 37° C. to determine the stability of peptide-MHC complexes. Off-rates of the complexes were measured by REVEAL™ off rate analysis (ProImmune Ltd., Oxford, UK) after 0, 2, and 24 hours of incubation at 37° C.

HLA-A*0201 [2] = target: T1, HLA-A*0201; assay: REVEAL MHC binding assay, incorporation into MHC relative to positive control peptide
HLA-A*0201 [3] = target: T1, HLA-A*0201; assay: REVEAL off rate analysis of peptide-MHC pentamers, 37 C, 0, 2 and 24 h; * 24 h interval too short for an accurate value
Method: as §1

HLA-A*0101 [4] = target: T2, HLA-A*0101 (human); assay: REVEAL off rate analysis of peptide-MHC pentamers, 37 C, 0, 2 and 24 h
T2 construct: Class I MHC molecule of the ProImmune REVEAL assay; also called HLA-A1
Method: as §1

HLA-A*0101 [5] = target: T2, HLA-A*0101; assay: REVEAL MHC binding assay, incorporation into MHC relative to positive control peptide
HLA-A*0301 [6] = target: T3, HLA-A*0301 (human); assay: as above
T3 construct: Class I MHC molecule of the ProImmune REVEAL assay; also called HLA-A3

HLA-A*0301 [7] = target: T3, HLA-A*0301; assay: REVEAL off rate analysis of peptide-MHC pentamers, 37 C, 0, 2 and 24 h; * 24 h interval too short for an accurate value
Method: as §1

HLA-A*0301 [8] = target: T3, HLA-A*0301; assay: REVEAL off rate analysis of peptide-MHC pentamers, 37 C, 0, 2 and 24 h
Method: as §1

t1/2 (HLA-A*0201 [1])	% Positive Control (HLA-A*0201 [2])	Binder	other results
15.5 h	115%	SLDFAQNFI (synthetic nine-residue peptide of human CD133 (ProImmune)) [CD133 peptide SLDFAQNFI (SEQ ID NO:15)]	–
20 h	107%	FITNNTSSV (synthetic nine-residue peptide of human CD133 (ProImmune)) [CD133 peptide FITNNTSSV (SEQ ID NO:13)]	–
–	131%	GLLERVTRI (synthetic nine-residue peptide of human CD133 (ProImmune)) [CD133 peptide GLLERVTRI (SEQ ID NO:20)]	t1/2 (HLA-A*0201 [3]): 74.3 h
2.37 h	123%	SQLNSNPEL (synthetic nine-residue peptide of human CD133 (ProImmune)) [CD133 peptide SQLNSNPEL (SEQ ID NO:18)]	–
–	–	AVDVFLCSY (synthetic nine-residue peptide of human CD133 (ProImmune)) [CD133 peptide AVDVFLCSY (SEQ ID NO:1)]	t1/2 (HLA-A*0101 [4]): 20.7 h; % Positive Control (HLA-A*0101 [5]): 58.6%
8.25 h	102%	LVLGSLLLL (synthetic nine-residue peptide of human CD133 (ProImmune)) [CD133 peptide LVLGSLLLL (SEQ ID NO:17)]	–
–	–	KLFNKSKMK (synthetic nine-residue peptide of human CD133 (ProImmune)) [CD133 peptide KLFNKSKMK (SEQ ID NO:4)]	% Positive Control (HLA-A*0301 [6]): 80.8%; t1/2 (HLA-A*0301 [7]): 27.8 h
6.86 h	156%	ELVHIFLYV (synthetic nine-residue peptide of human CD133 (ProImmune)) [CD133 peptide ELVHIFLYV (SEQ ID NO:16)]	–
–	93.6%	FLLPALIFA (synthetic nine-residue peptide of human CD133 (ProImmune)) [CD133 peptide FLLPALIFA (SEQ ID NO:21)]	t1/2 (HLA-A*0201 [3]): > 120 h
–	–	IIDPLNLFW (synthetic nine-residue peptide of human CD133 (ProImmune)) [CD133 peptide IIDPLNLFW (SEQ ID NO:3)]	t1/2 (HLA-A*0101 [4]): 0.35 h; % Positive Control (HLA-A*0101 [5]): 91.5%
5.63 h	163%	ILCCVLGLL (synthetic nine-residue peptide of human CD133 (ProImmune)) [CD133 peptide ILCCVLGLL (SEQ ID NO:19)]	–
3.51 h	165%	RVLDTPYLL (synthetic nine-residue peptide of human CD133 (ProImmune)) [CD133 peptide RVLDTPYLL (SEQ ID NO:14)]	–
–	–	YLSGKLFNK (synthetic nine-residue peptide of human CD133 (ProImmune)) [CD133 peptide YLSGKLFNK (SEQ ID NO:6)]	% Positive Control (HLA-A*0301 [6]): 46.9%
–	113%	YLQWIEFSI (synthetic nine-residue peptide of human CD133 (ProImmune)) [CD133 peptide YLQWIEFSI (SEQ ID NO:11)]	t1/2 (HLA-A*0201 [3]): 83 h
–	–	ILAQYNTTK (synthetic nine-residue peptide of human CD133 (ProImmune)) [CD133 peptide ILAQYNTTK (SEQ ID NO:5)]	t1/2 (HLA-A*0301 [8]): 2.07 h; % Positive Control (HLA-A*0301 [6]): 46.6%
–	–	NLFWFGIGK (synthetic nine-residue peptide of human CD133 (ProImmune)) [CD133 peptide NLFWFGIGK (SEQ ID NO:9)]	t1/2 (HLA-A*0301 [8]): 3.35 h; % Positive Control (HLA-A*0301 [6]): 53.1%
–	–	SSELESLKV (synthetic nine-residue peptide of human CD133 (ProImmune)) [CD133 peptide SSELESLKV (SEQ ID NO:2)]	t1/2 (HLA-A*0101 [4]): 0.46 h; % Positive Control (HLA-A*0101 [5]): 74.1%
1.83 h	180%	NLLSFAYDL (synthetic nine-residue peptide of human CD133 (ProImmune)) [CD133 peptide NLLSFAYDL (SEQ ID NO:12)]	–
–	–	LSSSLTSVK (synthetic nine-residue peptide of human CD133 (ProImmune)) [CD133 peptide LSSSLTSVK (SEQ ID NO:8)]	t1/2 (HLA-A*0301 [8]): 1.8 h; % Positive Control (HLA-A*0301 [6]): 52.5%
1.43 h	309%	VLDEIKSMA (synthetic nine-residue peptide of human CD133 (ProImmune)) [CD133 peptide VLDEIKSMA (SEQ ID NO:10)]	–
–	–	RTRIKRSRK (synthetic nine-residue peptide of human CD133 (ProImmune)) [CD133 peptide RTRIKRSRK (SEQ ID NO:7)]	t1/2 (HLA-A*0301 [8]): 23.9 h; % Positive Control (HLA-A*0301 [6]): 87.3%
